Results published in US9682130B2 (priority 2015, dated 2017).

Experiments:
[1] = tested on: Adenovirus serotype Ad5; assay: Ad5/NZW rabbit ocular replication model, plaque assay of ocular samples; assay type: in vivo; conditions: for Ad5-positive ocular samples, percent, Day 1 / Ad5-positive ocular samples, percent, Day 3 / Ad5-positive ocular samples, percent, Day 4 / Ad5-positive ocular samples, percent, Day 5 / Ad5-positive ocular samples, percent, Day 7 / Ad5-positive ocular samples, percent, Day 11 / Ad5-positive ocular samples, percent, Day 14 / Ad5-positive ocular samples, percent, Total / Ad5-positive ocular samples/total eyes, Day 1 / Ad5-positive ocular samples/total eyes, Day 3 / Ad5-positive ocular samples/total eyes, Day 4 / Ad5-positive ocular samples/total eyes, Day 5 / Ad5-positive ocular samples/total eyes, Day 7 / Ad5-positive ocular samples/total eyes, Day 11 / Ad5-positive ocular samples/total eyes, Day 14 / Ad5-positive ocular samples/total eyes, Total: 8x daily 9 days
Procedure: See, e.g., Romanowski, et al., The In Vitro and In Vivo Evaluation of ddC as a Topical Antiviral for Ocular Adenovirus Infections, Invest. Ophthalmol. Vis. Sci. 50: 5295-5299 (2009), which is hereby incorporated by reference in its entirety.
To conduct this in vivo assay, 25 NZW rabbit were anesthetized using the general anesthesia ketamine and xylazine and the topical anesthesia proparacaine. Each rabbit was then topically inoculated with 50 μL of Adenovirus serotype Ad5 (3×10^7 pfu/mL) in both eyes after corneal epithelial scarification (12 cross-hatched strokes of a 25 sterile needle). Eyes were closed and gently rubbed for 5 seconds to ensure contact of the virus on all ocular surfaces. […] All topical solutions (37 μL drops) were instilled with an electronic pipette (EDP; Rainin, Oakland, Calif.) set in the multi-dispense mode. Ocular swabbing to recover adenovirus from tear film and corneal and conjunctival surfaces, after topical anesthesia with proparacaine, was performed at least 1 hour after the final dose on days 0, 1, 3, 4, 5, 7, 9, 11, and 14 after inoculation. The ocular samples from each eye was placed individually into tubes containing 1 mL of medium and were frozen at −70° C. pending viral plaque assay.
The ocular samples were assayed for Ad5 titers by performing a plaque reduction assay. Samples were diluted 1:10 and these dilutions were inoculated onto duplicate wells of a 24 well multi-plate containing A549 monolayers. The virus was adsorbed for 3 hours at 37° C. in a 5% CO2-water vapor atmosphere without constant rocking. After adsorption, 1 mL of medium plus 0.5% methylcellulose was added to each well, and the plates were incubated at 37° C. in a 5% CO2-water vapor atmosphere. After 7 days, the cells were stained with 0.5% gentian violet, and the number of plaques counted using a dissecting microscope (25×). The viral titers were then calculated, and will be expressed as plaque-forming units per milliliter (PFU/mL). Data from the study were analyzed using analysis of variance (ANOVA) with Fisher's pair-wise comparisons and X^2 analyses using True Epistat and/or Minitab statistical software. Significance was established at the P≦0.05 confidence level.

[2] = tested on: Human Adenovirus 5 (AD5 strain NYS #98-1836); assay: Virus yield reduction assay, Adenovirus 5; assay type: cell-based
Procedure: (§1) The concentration of test compound required to inhibit CPE by 50% or reduce red uptake into cells by 50% (EC50) was calculated by regression analysis. The toxicity of the compound without virus present was similarly calculated using the uninfected wells treated with test compounds compared with untreated cell controls. The concentration of compound that would cause 50% cytotoxic effects in the absence of virus (CC50) was estimated by linear regression analysis. The selectivity index (SI) is the CC50 divided by EC50.
(§2) The virus yield reduction assay was used to determine actual virus amounts in the presence and absence of the test compound; this is the confirmatory assay for antiviral activity. […] Replicate wells of each compound concentration or control were pooled and frozen at −80° C. Samples were thawed and diluted by 10-fold serial dilutions. A 100 μL aliquot of each dilution was then plated onto 4 replicate wells of 96-well plates seeded with the applicable cells for each virus strain. Plates were incubated as noted above until viral CPE reached its endpoint, then each well was scored microscopically for the presence of viral CPE. The virus titer was determined based on the endpoint using the Reed-Muench method. […]

[3] = tested on: Human Adenovirus 8 (Ad8 strain 13306); assay: Virus yield reduction assay, Adenovirus 8; assay type: cell-based
Procedure: as §1, §2

[4] = Jones Dye test for nasolacrimal duct blockage; assay type: in vivo, NZW rabbit; conditions: Day 21, all Ranpirnase concentrations
Procedure: The animals were also assayed on day 21 for nasolacrimal duct blockage by performing a Jones Dye test. On Day 21, a drop of sodium fluorescein was placed in each eye and the time to the dye appearing in the ipsilateral nostril was measured.

B1: Ranpirnase (protein, UniProt P22069 1-104, looked up)
Protein P-30: QDWLTFQKKHITNTRDVDCDNIMSTNLFHCKDKNTFIYSRPEPVKAICKGIIASKNVLTTSEFYLSDCNVTSRPCKYKLKKSTNKFCVTCENQAPVHFVGVGSC
notes: amphibian ribonuclease originally isolated from oocytes and/or early embryos of Rana pipiens; pancreatic ribonuclease (RNase A) superfamily, about 12 kD
Ad5-positive ocular samples, percent, Day 1 ([1]; 0.25 μM Ranpirnase (group 1C)): 100% | Ad5-positive ocular samples, percent, Day 3 ([1]; 0.25 μM Ranpirnase (group 1C)): 100% | Ad5-positive ocular samples, percent, Day 4 ([1]; 0.25 μM Ranpirnase (group 1C)): 100% | Ad5-positive ocular samples, percent, Day 5 ([1]; 0.25 μM Ranpirnase (group 1C)): 100% | Ad5-positive ocular samples, percent, Day 7 ([1]; 0.25 μM Ranpirnase (group 1C)): 88% | Ad5-positive ocular samples, percent, Day 11 ([1]; 0.25 μM Ranpirnase (group 1C)): 38% | Ad5-positive ocular samples, percent, Day 14 ([1]; 0.25 μM Ranpirnase (group 1C)): 0% | Ad5-positive ocular samples, percent, Total ([1]; 0.25 μM Ranpirnase (group 1C)): 76.7% | Ad5-positive ocular samples/total eyes, Day 1 ([1]; 0.25 μM Ranpirnase (group 1C)): 10/10 | Ad5-positive ocular samples/total eyes, Day 3 ([1]; 0.25 μM Ranpirnase (group 1C)): 10/10 | Ad5-positive ocular samples/total eyes, Day 4 ([1]; 0.25 μM Ranpirnase (group 1C)): 8/8 | Ad5-positive ocular samples/total eyes, Day 5 ([1]; 0.25 μM Ranpirnase (group 1C)): 8/8 | Ad5-positive ocular samples/total eyes, Day 7 ([1]; 0.25 μM Ranpirnase (group 1C)): 7/8 | Ad5-positive ocular samples/total eyes, Day 11 ([1]; 0.25 μM Ranpirnase (group 1C)): 3/8 | Ad5-positive ocular samples/total eyes, Day 14 ([1]; 0.25 μM Ranpirnase (group 1C)): 0/8 | Ad5-positive ocular samples/total eyes, Total ([1]; 0.25 μM Ranpirnase (group 1C)): 46/60 | Ad5-positive ocular samples, percent, Day 1 ([1]; 2.5 μM Ranpirnase (group 1B)): 100% | Ad5-positive ocular samples, percent, Day 3 ([1]; 2.5 μM Ranpirnase (group 1B)): 100% | Ad5-positive ocular samples, percent, Day 4 ([1]; 2.5 μM Ranpirnase (group 1B)): 100% | Ad5-positive ocular samples, percent, Day 5 ([1]; 2.5 μM Ranpirnase (group 1B)): 80% | Ad5-positive ocular samples, percent, Day 7 ([1]; 2.5 μM Ranpirnase (group 1B)): 70% | Ad5-positive ocular samples, percent, Day 11 ([1]; 2.5 μM Ranpirnase (group 1B)): 0% | Ad5-positive ocular samples, percent, Day 14 ([1]; 2.5 μM Ranpirnase (group 1B)): 0% | Ad5-positive ocular samples, percent, Total ([1]; 2.5 μM Ranpirnase (group 1B)): 64.3% | Ad5-positive ocular samples/total eyes, Day 1 ([1]; 2.5 μM Ranpirnase (group 1B)): 10/10 | Ad5-positive ocular samples/total eyes, Day 3 ([1]; 2.5 μM Ranpirnase (group 1B)): 10/10 | Ad5-positive ocular samples/total eyes, Day 4 ([1]; 2.5 μM Ranpirnase (group 1B)): 10/10 | Ad5-positive ocular samples/total eyes, Day 5 ([1]; 2.5 μM Ranpirnase (group 1B)): 8/10 | Ad5-positive ocular samples/total eyes, Day 7 ([1]; 2.5 μM Ranpirnase (group 1B)): 7/10 | Ad5-positive ocular samples/total eyes, Day 11 ([1]; 2.5 μM Ranpirnase (group 1B)): 0/10 | Ad5-positive ocular samples/total eyes, Day 14 ([1]; 2.5 μM Ranpirnase (group 1B)): 0/10 | Ad5-positive ocular samples/total eyes, Total ([1]; 2.5 μM Ranpirnase (group 1B)): 45/70 | Ad5-positive ocular samples, percent, Day 1 ([1]; 25 μM Ranpirnase (group 1A)): 100% | Ad5-positive ocular samples, percent, Day 3 ([1]; 25 μM Ranpirnase (group 1A)): 100% | Ad5-positive ocular samples, percent, Day 4 ([1]; 25 μM Ranpirnase (group 1A)): 100% | Ad5-positive ocular samples, percent, Day 5 ([1]; 25 μM Ranpirnase (group 1A)): 90% | Ad5-positive ocular samples, percent, Day 7 ([1]; 25 μM Ranpirnase (group 1A)): 30% | Ad5-positive ocular samples, percent, Day 11 ([1]; 25 μM Ranpirnase (group 1A)): 0% | Ad5-positive ocular samples, percent, Day 14 ([1]; 25 μM Ranpirnase (group 1A)): 0% | Ad5-positive ocular samples, percent, Total ([1]; 25 μM Ranpirnase (group 1A)): 60% | Ad5-positive ocular samples/total eyes, Day 1 ([1]; 25 μM Ranpirnase (group 1A)): 10/10 | Ad5-positive ocular samples/total eyes, Day 3 ([1]; 25 μM Ranpirnase (group 1A)): 10/10 | Ad5-positive ocular samples/total eyes, Day 4 ([1]; 25 μM Ranpirnase (group 1A)): 10/10 | Ad5-positive ocular samples/total eyes, Day 5 ([1]; 25 μM Ranpirnase (group 1A)): 9/10 | Ad5-positive ocular samples/total eyes, Day 7 ([1]; 25 μM Ranpirnase (group 1A)): 3/10 | Ad5-positive ocular samples/total eyes, Day 11 ([1]; 25 μM Ranpirnase (group 1A)): 0/10 | Ad5-positive ocular samples/total eyes, Day 14 ([1]; 25 μM Ranpirnase (group 1A)): 0/10 | Ad5-positive ocular samples/total eyes, Total ([1]; 25 μM Ranpirnase (group 1A)): 42/70 | Antiviral efficacy compared to the Saline (negative) control ([1]; 25, 2.5 and 0.25 μM Ranpirnase, Ad5/NZW rabbit ocular model): dose dependent antiviral efficacy | Yield Reduction Assay EC50 [2]: 21.54 µg/mL | Yield Reduction Assay EC50 [3]: 25.1 µg/mL | Blocked nasolacrimal ducts, Jones Dye test [4]: no Ranpirnase treated rabbits, regardless of concentration, resulted in blocked nasolacrimal ducts
